Test results as given in patent US8088892B2, “Inhibitors of proteins from the Rho-GEF family” (Centre National de la Recherche Scientifique (C.N.R.S.), priority 2002, dated 2012).
Entries after “also recorded” stand apart in the source; their conditions may differ.

Assays:
GEFD2 domain of Kalirin = biological target: T1, GEFD2 domain of Kalirin (Rattus norvegicus, UniProt P97924); test: Binding specificity of aptamers in yeast; parameters: key to Binding in yeast: +++^1 and +^1 represent respectively a full and a partial (see FIG. 1) binding capacity; +++^1 and +^1 represent respectively a full and a partial (see FIG. 1) binding capacity; −−^1 represents a lack of binding
T1 construct: GEFD2 domain of Kalirin (a.a. 1640-1980); expressed in transfected cells; host or cells: yeast
Text: (§1) Trx represents the thioredoxin protein with no inserted peptide.
(§2) In order to identify specific inhibitors of TrioGEFD2, a recently developed strategy was used, this strategy being derived from the yeast two hybrid system, where the cDNA library of preys has been replaced by a combinatorial library of short peptides (20 amino acids) in fusion with the bacterial protein thioredoxin A (Colas et al., 1996). This strategy has been successfully used to isolate specific inhibitors of the cyclin-dependent kinases (Cdks), the cell cycle transcription factor E2F, or the viral HPV16 E6 oncoprotein and HBEV core protein (Colas et al., 1996; Butz et al., 2001; Fabrizzio et al., 1999; Geyer et al., 2000). The TrioGEFD2 bait was constructed as follows: plasmid pMTHATrio1848-2298 (Bellanger et al., 1998) was digested with EcoRI/XhoI and the insert cloned in pEG202EcoRI/XhoI to generate the bait pEG202TroGEFD2. Yeast strain EGY048 (Colas et al., 1996) was transformed with pEG202TrioGEFD2 and subsequently with the library of Thioredoxin constrained aptamers according to standard procedures (Ito et al., 1983). After transformation, cells were allowed to recover for 4 hours in galactose containing medium before plating on selective galactose medium. Of the 2×10^6 screened colonies, those growing in the selective medium were recovered and retested for interaction. […] Binding specificity was investigated by screening for interaction with the following baits: TrioDH2 (a.a. 1848-2096), TrioPH2 (a.a. 2107-2223), TrioGEFD1 (a.a. 1232-1629), Dbl (a.a. 498-826), Vav (ala. 172-598) (Zhang et al, 1994), GEFD2 domain of Kalirin (a.a. 1640-1980)(Penzes et al., 2001), p115RhoGEF (a.a. 391-870)(Wells et al, 2002) and PDZRhoGEF (a.a. 964-1362) (Fukuhara et al., 1999). None of these aptamers interacted with other RhoGEF members such as Dbl, Vav, and the RhoA-specific GEFs p115RhoGEF and PDZRhoGEF.

TrioGEFD1 (DH1PH1) = biological target: T2, TrioGEFD1 (DH1PH1) (Homo sapiens, UniProt O75962); test: Binding specificity of aptamers in yeast; parameters: key to Binding in yeast: +++^1 and +^1 represent respectively a full and a partial (see FIG. 1) binding capacity; +++^1 and +^1 represent respectively a full and a partial (see FIG. 1) binding capacity; −−^1 represents a lack of binding
T2 construct: TrioGEFD1 (a.a. 1232-1629); expressed in transfected cells; host or cells: yeast
Text: as §1, §2

TrioDH2 = biological target: T3, TrioDH2 (Homo sapiens, UniProt O75962); test: In vitro GEF assay on RhoA; assay type: biochemical; settings: 20-fold molar excess (8 μM) aptamer, 0.4 μM GST-DH2
T3 construct: TrioDH2 (a.a. 1848-2096); made in house
Method: A 20-fold molar excess (8 μM) of GST-aptamers TRIAPα, TRIAPβ (another TrioGEFD2 binding aptamer), TRIAPγ (another TrioGEFD2 binding aptamer) or the empty thioredoxine (Trx) were pre-incubated with 0.4 μM GST-GEFD2 (left side of FIG. 2A) or 0.4 μM GST-DH2 (right side of FIG. 2A), as indicated, before adding 0.3 μM of [^3H]GDP loaded GST-RhoA. The exchange activity was monitored by the decrease of [^3H]GDP bound-RhoA after 15 min (see Materials and Methods). The amount of [^3H]GDP bound-RhoA incubated without GEF (first bar on the left) was defined as 100% The values and errors bars were calculated from at least three independent experiments.
An in vitro guanine nucleotide exchange (GEF) assay was used to test whether the TrioGEFD2-binding aptamers could inhibit the catalytic activity of TrioGEFD2 towards RhoA. For this purpose, the aptamers TRIAPα, TRIAPβ and TRIAPγ (including the Trx gene) were excised from pEG202 as EcoRI/NotI fragments and cloned into pGEX4T1 EcoRI/NotI. The aptamers were then expressed and purified from bacteria as GST fusion proteins, using standard procedures (Smith and Johnson, 1988). […] The catalytic activity of TrioGEFD2 was thus measured by the decrease of the GTPase-associated radioactivity. The results are expressed as the ratio “exchange after 15 min over exchange after 0 min” (% bound [^3H]GDP-RhoA). […]

Binding in yeast (GEFD2 domain of Kalirin; RhoGEF KalirinDH2PH2): +^1
Binding in yeast (TrioGEFD1 (DH1PH1); RhoGEF TrioDH1PH1): +^1
Inhibition of TrioDH2 exchange activity on RhoA in vitro (TrioDH2): inhibits
B1: TRIAPα: aptamer of 154 amino acids: variable region of 42 amino acids inserted into the thioredoxin protein; tested as GST fusion (protein)
chain: MSDKIIHLTDDSFDTDVLKADGAILVDFWAEWCGPAREGADGAICGYNLATLVMLGPSERVFCPLCEPCSSDIYELMGPCKMIAPILDEIADEYQGKLTVAKLNIDQNPGTAPKYGIRGIPTLLLFKNGEVASATKVGALSKGQLKEFLDANLA
Binding to the second RhoGEF domain of Kalirin in yeast (GEFD2 domain of Kalirin; growth on selective medium): weakly interacts; also recorded: interacted weakly
Binding to TrioGEFD1 (DH1PH1) in yeast (TrioGEFD1 (DH1PH1); growth on selective medium): weakly interacts; also recorded: interacted weakly; also recorded: bound TrioGEFD1 in yeast
Inhibition of TrioDH2 exchange activity on RhoA in vitro (TrioDH2; listed as GST-TRIAPα): inhibited both TrioGEFD2 and TrioDH2 exchange activities
